{
  "source": "paper PMC10397247",
  "experiment_in_all_cases": "two-hybrid library CCNG1;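 also: natural log of median RNA to DNA barcode read ratio; higher means stronger binding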",
  "key": {"O3": {"molecular_target": "T1, O3", "T1 chain": "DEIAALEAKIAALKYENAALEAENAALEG"}, "4H3632-bA": {"molecular_target": "T2, 4H3632-bA", "T2 chain": "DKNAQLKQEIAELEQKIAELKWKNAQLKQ"}, "4H342-bA": {"molecular_target": "T3, 4H342-bA", "T3 chain": "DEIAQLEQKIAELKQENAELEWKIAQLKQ"}, "4H48-bA": {"molecular_target": "T4, 4H48-bA", "T4 chain": "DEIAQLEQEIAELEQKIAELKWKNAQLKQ"}, "4H918-bN": {"molecular_target": "T5, 4H918-bN", "T5 chain": "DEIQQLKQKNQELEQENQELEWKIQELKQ"}, "4H496-bA": {"molecular_target": "T6, 4H496-bA", "T6 chain": "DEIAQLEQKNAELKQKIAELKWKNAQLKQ"}, "4H491-bA": {"molecular_target": "T7, 4H491-bA", "T7 chain": "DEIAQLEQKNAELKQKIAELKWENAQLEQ"}, "4H3462-bN": {"molecular_target": "T8, 4H3462-bN", "T8 chain": "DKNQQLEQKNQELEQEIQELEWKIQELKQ"}, "4H3926-bA": {"molecular_target": "T9, 4H3926-bA", "T9 chain": "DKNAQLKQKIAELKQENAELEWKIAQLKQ"}, "4H235-bN": {"molecular_target": "T10, 4H235-bN", "T10 chain": "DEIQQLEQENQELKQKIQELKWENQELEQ"}, "4H3162-bN": {"molecular_target": "T11, 4H3162-bN", "T11 chain": "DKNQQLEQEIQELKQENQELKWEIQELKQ"}, "4H619-bN": {"molecular_target": "T12, 4H619-bN", "T12 chain": "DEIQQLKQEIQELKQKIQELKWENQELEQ"}, "4H591-bN": {"molecular_target": "T13, 4H591-bN", "T13 chain": "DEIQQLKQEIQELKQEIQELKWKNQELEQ"}, "4H906-bN": {"molecular_target": "T14, 4H906-bN", "T14 chain": "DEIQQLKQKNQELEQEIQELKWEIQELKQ"}, "4H3129-bN": {"molecular_target": "T15, 4H3129-bN", "T15 chain": "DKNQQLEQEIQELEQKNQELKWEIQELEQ"}, "4H3175-bN": {"molecular_target": "T16, 4H3175-bN", "T16 chain": "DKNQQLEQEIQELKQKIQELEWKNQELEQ"}, "4H626-bN": {"molecular_target": "T17, 4H626-bN", "T17 chain": "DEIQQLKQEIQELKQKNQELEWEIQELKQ"}, "4H3298-bN": {"molecular_target": "T18, 4H3298-bN", "T18 chain": "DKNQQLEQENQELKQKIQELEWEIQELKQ"}, "4H3858-bN": {"molecular_target": "T19, 4H3858-bN", "T19 chain": "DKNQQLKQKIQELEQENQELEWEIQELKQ"}, "4H3497-bN": {"molecular_target": "T20, 4H3497-bN", "T20 chain": "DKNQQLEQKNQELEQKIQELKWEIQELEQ"}, "4H584-bN": {"molecular_target": "T21, 4H584-bN", "T21 chain": "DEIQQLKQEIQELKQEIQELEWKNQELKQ"}, "P3bH1": {"molecular_target": "T22, P3bH1", "T22 chain": "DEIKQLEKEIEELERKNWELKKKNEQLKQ"}, "4H3613-bN": {"molecular_target": "T23, 4H3613-bN", "T23 chain": "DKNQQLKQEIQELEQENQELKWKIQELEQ"}, "4H3628-bN": {"molecular_target": "T24, 4H3628-bN", "T24 chain": "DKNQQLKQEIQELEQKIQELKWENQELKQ"}, "4H3631-bN": {"molecular_target": "T25, 4H3631-bN", "T25 chain": "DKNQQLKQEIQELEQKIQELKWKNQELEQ"}, "4H3277-bN": {"molecular_target": "T26, 4H3277-bN", "T26 chain": "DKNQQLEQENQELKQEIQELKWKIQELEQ"}, "4H3638-bN": {"molecular_target": "T27, 4H3638-bN", "T27 chain": "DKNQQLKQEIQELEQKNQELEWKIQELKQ"}, "4H3172-bN": {"molecular_target": "T28, 4H3172-bN", "T28 chain": "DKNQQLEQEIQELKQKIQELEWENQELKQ"}, "4H3974-bN": {"molecular_target": "T29, 4H3974-bN", "T29 chain": "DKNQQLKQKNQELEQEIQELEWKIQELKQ"}, "4H1899-bN": {"molecular_target": "T30, 4H1899-bN", "T30 chain": "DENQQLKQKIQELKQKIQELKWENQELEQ"}, "4H3414-bN": {"molecular_target": "T31, 4H3414-bN", "T31 chain": "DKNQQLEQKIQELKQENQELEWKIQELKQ"}, "4H1710-bN": {"molecular_target": "T32, 4H1710-bN", "T32 chain": "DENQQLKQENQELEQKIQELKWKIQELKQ"}, "4H570-bN": {"molecular_target": "T33, 4H570-bN", "T33 chain": "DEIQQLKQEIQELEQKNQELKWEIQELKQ"}, "4H3926-bN": {"molecular_target": "T34, 4H3926-bN", "T34 chain": "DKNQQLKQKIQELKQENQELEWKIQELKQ"}, "4H850-bN": {"molecular_target": "T35, 4H850-bN", "T35 chain": "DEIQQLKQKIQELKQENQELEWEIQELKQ"}, "4H1804-bN": {"molecular_target": "T36, 4H1804-bN", "T36 chain": "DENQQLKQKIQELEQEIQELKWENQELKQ"}, "4H1985-bN": {"molecular_target": "T37, 4H1985-bN", "T37 chain": "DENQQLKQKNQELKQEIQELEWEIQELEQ"}, "4H3817-bN": {"molecular_target": "T38, 4H3817-bN", "T38 chain": "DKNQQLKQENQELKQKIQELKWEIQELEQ"}},
  "data": [
    {"binder": "DEIAQLEQKIAELKQENAELEWKIAQLKQ", "note": "[4H342-bA]", "values": [
      {"measurement": "interaction score", "setting": "O3", "result": -1.6},
      {"measurement": "interaction score", "setting": "4H3632-bA", "result": 0.725},
      {"measurement": "interaction score", "setting": "4H342-bA", "result": 1.64},
      {"measurement": "interaction score", "setting": "4H48-bA", "result": 0.0458},
      {"measurement": "interaction score", "setting": "4H918-bN", "result": -0.0267},
      {"measurement": "interaction score", "setting": "4H496-bA", "result": 2.13},
      {"measurement": "interaction score", "setting": "4H491-bA", "result": 1.5}
    ]},
    {"binder": "DENQQLKQENQELEQKIQELKWKIQELKQ", "note": "[4H1710-bN]", "values": [
      {"measurement": "interaction score", "setting": "4H3462-bN", "result": -0.312},
      {"measurement": "interaction score", "setting": "4H3926-bA", "result": -0.849},
      {"measurement": "interaction score", "setting": "4H235-bN", "result": -2.91},
      {"measurement": "interaction score", "setting": "4H3162-bN", "result": 0.233},
      {"measurement": "interaction score", "setting": "4H619-bN", "result": 0.707},
      {"measurement": "interaction score", "setting": "4H591-bN", "result": -0.724},
      {"measurement": "interaction score", "setting": "4H906-bN", "result": 0.452},
      {"measurement": "interaction score", "setting": "4H3129-bN", "result": -0.785},
      {"measurement": "interaction score", "setting": "4H3175-bN", "result": -0.28},
      {"measurement": "interaction score", "setting": "4H626-bN", "result": 0.722},
      {"measurement": "interaction score", "setting": "4H3298-bN", "result": 0.498},
      {"measurement": "interaction score", "setting": "4H3858-bN", "result": -0.718},
      {"measurement": "interaction score", "setting": "4H3497-bN", "result": 0.701},
      {"measurement": "interaction score", "setting": "4H584-bN", "result": 0.273},
      {"measurement": "interaction score", "setting": "P3bH1", "result": -2.08},
      {"measurement": "interaction score", "setting": "4H3613-bN", "result": -0.41},
      {"measurement": "interaction score", "setting": "4H3628-bN", "result": 1.45},
      {"measurement": "interaction score", "setting": "4H3631-bN", "result": 0.993},
      {"measurement": "interaction score", "setting": "4H3277-bN", "result": 0.0226},
      {"measurement": "interaction score", "setting": "4H3638-bN", "result": -0.0052},
      {"measurement": "interaction score", "setting": "4H3172-bN", "result": -0.194},
      {"measurement": "interaction score", "setting": "4H3974-bN", "result": 0.85},
      {"measurement": "interaction score", "setting": "4H1899-bN", "result": 0.0366},
      {"measurement": "interaction score", "setting": "4H3414-bN", "result": -0.297},
      {"measurement": "interaction score", "setting": "4H1710-bN", "result": 0.191},
      {"measurement": "interaction score", "setting": "4H570-bN", "result": 0.578},
      {"measurement": "interaction score", "setting": "4H3926-bN", "result": -0.569},
      {"measurement": "interaction score", "setting": "4H850-bN", "result": 0.177},
      {"measurement": "interaction score", "setting": "4H1804-bN", "result": -0.254},
      {"measurement": "interaction score", "setting": "4H1985-bN", "result": 1.36},
      {"measurement": "interaction score", "setting": "4H3817-bN", "result": 1.23}
    ]}
  ]
}
